Measurements published in patent US20120204273A1, “COMPOSITIONS RELATING TO A PHOSPHOPROTEIN AND METHODS OF USE” (SANFORD-BURNHAM MEDICAL RESEARCH INSTITUTE, priority 2010, published 2012).

Assays:
3T3-L1 adipocytes = assay: myc-GLUT4-GFP translocation to the cell surface; format: cell-based, mouse; conditions: insulin 100 nM, 30 min
Description: FIG. 2, panels A-C show knockdown of CDP138 in 3T3-L1 adipocytes inhibits insulin-stimulated glucose transport (A) and myc-GLUT4-GFP translocation (B), but not endogenous GLUT4 movement to the periphery detected in TIRF zone (C). (A): Differentiated adipocytes at day 5 were transfected with siRNAs against mouse 5730419I09Rik or the scrambled siRNA (Scr) as described earlier (Jiang et al., 2003) for 60 hrs, then serum starved overnight. Cells were then treated with or without insulin (1 nM and 100 nM) for 30 min for the glucose uptake assay, or 15 min for immunoblotting of CDP138, pAkt, Akt and β-actin. Glucose transport data are presented as mean±SD of 4 independent experiments. *P<0.05 vs Scr Insulin (1 nM) group; **P<0.01 vs Scr Insulin (100 nM) group. (B): Day 5 adipocytes were transfected with siRNAs and myc-GLUT4-GFP for 60 hrs and then serum starved overnight. Cells were then treated with insulin (1 nM) for 20 min. Cell surface Myc-GLUT4-GFP was detected with anti-myc monoclonal Ab (9E10) and Alexa Fluor 568-labeled goat anti-mouse IgG in non-permeablized cells. The Myc signal and GFP signal were quantified as previously described (Jiang et al., 2002). Data presented are representative microscopic images and mean±SD of about 160 GFP-positive cells in each group from three independent experiments. **P<0.01 vs Scr Insulin (1 nM) group. […] GLUT4 was detected with a goat anti-GLUT4 Ab and Alexa Fluor 488-conjugated donkey anti-goat Ab in permeabilized cells. Top and middle panels show 100 nm TIRF zone and representative GLUT4 TIRFM images, respectively. Data are mean±SD of 3 independent experiments. **P<0.01 vs Scr Insulin groups.
GLUT4 translocation detection with wide field fluorescence and TIRF microscopy: Both wide field and TIRF microscopy were used to detect myc-GLUT4-GFP translocation to the cell surface as previously described (Jiang et al., 2002) and herein.
To test the effect of RNAi-induced gene specific knockdown of CDP138 or overexpression of CDP138 mutants on GLUT4 translocation, siRNAs or CDP138 constructs were transfected into adipocytes together with myc-GLUT4-GFP by electroporation as previously described (Jiang et al, 2003). […] Cells were washed with cold PBS, fixed with 4% formaldehyde and immunostained. Briefly, for siRNA study, the cell surface Myc-GLUT4-GFP was visualized with mouse anti-Myc Ab (9E10) and AlexaFluoro568-labeled goat anti-mouse secondary Ab (Invitrogen) in PBS containing 1% FBS. After washing, the coverslip were mounted with Prolong antifade reagent (Invitrogen, Eugene Oreg.). Fluorescence microscopy was carried as described below. Then, images were acquired with wide field microscopy as described below. For the study with overexpressed HAtagged CDP138 constructs, the cell surface Myc-GLUT4-GFP was visualized with rabbit anti-Myc Ab (Cell signaling, Inc) and AlexaFluoro568-labeled goat anti-rabbit secondary Ab (InVitrogen) in PBS containing 1% FBS. Cells were further permeabilized with PSB containing 0.5% Tween-20, and HA-tagged protein was detected with a mouse anti-HA epitope primary Ab followed by AlexaFluoro-350-labelled goat anti-mouse IgG. Insulin-induced myc-GLUT4 accumulation (AlexaFluoro-568 signal) within the evanescence excitation field (100 nm from dorsal membrane) in transfected adipocytes was measured with a Nikon Eclipse-Ti microscope equipped with a CoolSNAP HQ2 camera and laser scanning TIRF capacity. Total GLUT4-GFP signals and […] Alexa Fluoro-350 signals were acquired with wide field imaging to identify double-transfected cells. The ratio of myc-GLUT4 signal in the TIRF zone to the total Epi-GFP signal in wide field was used as a measure of GLUT4 translocation to the cell surface.
Image Analysis and Quantification: TIRF and wide field fluorescence microscopy were performed using a Nikon inverted microscope (Melville, N.Y.) with a cooled charge-coupled device camera. […]

CHO-T cells = assay: Cell division of CHO-T cells overexpressing HA-CDP138; format: cell-based
From the text: Large cells bodies with multiple nuclei were formed in HA-tagged CDP138 positive CHO-T cells.
HA-CDP138 positive cell is 3-5 times bigger than HA-negative cells (FIG. 14).

PC12 cells [1] = assay: Survival of differentiated PC12 neuronal cells under serum starvation; format: cell-based; conditions: for cell death / survival after 24 hours of starvation / cell death within 14 hours of starvation: transfected 24 h, NGF 24 h, serum starved
Description: Cells were serum starved for 6 hours (6 H), 14 hours (14 H) or 24 hours (24 H) before counting the number of cells in two wells.
Cells were serum starved for 24 hours before counting the number of bid surviving differentiated neuronal cells in two wells.
In order to determine the affects of CDP138 of neuronal cell survival, PC12 cells were transfected with wild-type CDP138-WT vector, dominant negative mutant CDP138-5DA vector or an empty vector for 24 h followed by adding NGF (neuron growth factor) for 24 h. Then cells were serum starved for 6 hours, 14 hour, and 24 hour before counting cell number in 2 wells.
(§1) In addition to counting the total number of cells that survived, the number of big surviving differentiated neuronal cells were also assessed following 24 hours of starvation. […] This was a 50% increase in the number of big differentiated cells.

PC12 cells [2] = assay: NGF-induced neurite outgrowth in PC12 cells; format: cell-based
Description: FIG. 13, panels A and B, show the expression pattern of CDP138 in various tissues and the effects of overexpressed wild-type and mutant CDP138 in neuronal growth factor (NGF)-induced neurite outgrowth in PC12 cells. A: CDP138 is highly expressed in the brain and distributed in the neurite and synapse of neuronal cells. 30 μg of total protein was assayed for all tissues, except only 15 μg of total protein from brain tissue was assayed in the immunoblotting of panel A. Exemplary protein distribution of CDP138-mCherry in a PC12 cell is also shown. B: Overexpressed CDP138-WT enhances neurite growth, whereas the CDP138-5DA mutant had the opposite effect.
as §1

B1: HA-CDP138-WT: full-length human KIAA0528 (CDP138) tagged with 3HA epitope at the N-terminus, pCMV5 vector (protein)
chain: MPGKLKVKIVAGRHLPVMDRASDLTDAFVEVKFGNTTFKTDVYLKSLNPQWNSEWFKFEVDDEDLQDEPLQITVLDHDTYSANDAIGKVYIDIDPLLYSEAATVISGWFPIYDTIHGIRGEINVVVKVDLFNDLNRFRQSSCGVKFFCTTSIPKCYRAVIIHGFVEELVVNEDPEYQWIDRIRTPRASNEARQRLISLMSGELQRKIGLKVLEMRGNAVVGYLQCFDLEGESGLVVRAIGTACTLDKLSSPAAFLPACNSPSKEMKEIPFNEDPNPNTHSSGPSTPLKNQTYSFSPSKSYSRQSSSSDTDLSLTPKTGMGSGSAGKEGGPFKALLRQQTQSALEQREFPFFTLTAFPPGFLVHVGGVVSARSVKLLDRIHNPDEPETRDAWWAEIRQEIKSHAKALGCHAVVGYSESTSICEEVCILSASGTAAVLNPRFLQDGTVEGCLEQRLEENLPTRCGFCHIPYDELNMPFPAHLTYCYNCRKQKVPDVLFTTIDLPTDATVIGKGCLIQARLCRLKKKAQAEANATAISNLLPFMEYEVHTQLMNKLKLKGMNALFGLRIQITVGENMLMGLASATGVYLAALPTPGGIQIAGKTPNDGSYEQHISHMQKKINDTIAKNKELYEINPPEISEEIIGSPIPEPRQRSRLLRSQSESSDEVTELDLSHGKKDAFVLEIDDTDAMEDVHSLLTDVPPPSGFYSCNTEIMPGINNWTSEIQMFTSVRVIRLSSLNLTNQALNKNFNDLCENLLKSLYFKLRSMIPCCLCHVNFTVSLPEDELIQVTVTAVAITFDKNQALQTTKTPVEKSLQRASTDNEELLQFPLELCSDSLPSHPFPPAKAMTVEKASPVGDGNFRNRSAPPCANSTVGVVKMTPLSFIPGAKITKYLGIINMFFIRETTSLREEGGVSGFLHAFIAEVFAMVRAHVAALGGNAVVSYIMKQCVFMENPNKNQAQCLINVSGDAVVFVRESDLEVVSSQQPTTNCQSSCTEGEVTT
effect of overexpression on insulin-stimulated myc-GLUT4-GFP translocation (TIRF myc / Epi GFP) (3T3-L1 adipocytes): did not significantly alter
size of positive cells relative to HA-negative cells (CHO-T cells): 3-5 times
positive cells with big multiple nuclei (CHO-T cells; three different experiments): about 24.6%

B2: CDP138-5DA: dominant negative mutant CDP138-5DA vector transfected into PC12 cells (protein, UniProt Q86YS7 1-1000, looked up, variant D19A D26A D76A D78A D84A)
C2 domain-containing protein 5: MPGKLKVKIVAGRHLPVMARASDLTAAFVEVKFGNTTFKTDVYLKSLNPQWNSEWFKFEVDDEDLQDEPLQITVLAHATYSANAAIGKVYIDIDPLLYSEAATVISGWFPIYDTIHGIRGEINVVVKVDLFNDLNRFRQSSCGVKFFCTTSIPKCYRAVIIHGFVEELVVNEDPEYQWIDRIRTPRASNEARQRLISLMSGELQRKIGLKVLEMRGNAVVGYLQCFDLEGESGLVVRAIGTACTLDKLSSPAAFLPACNSPSKEMKEIPFNEDPNPNTHSSGPSTPLKNQTYSFSPSKSYSRQSSSSDTDLSLTPKTGMGSGSAGKEGGPFKALLRQQTQSALEQREFPFFTLTAFPPGFLVHVGGVVSARSVKLLDRIHNPDEPETRDAWWAEIRQEIKSHAKALGCHAVVGYSESTSICEEVCILSASGTAAVLNPRFLQDGTVEGCLEQRLEENLPTRCGFCHIPYDELNMPFPAHLTYCYNCRKQKVPDVLFTTIDLPTDATVIGKGCLIQARLCRLKKKAQAEANATAISNLLPFMEYEVHTQLMNKLKLKGMNALFGLRIQITVGENMLMGLASATGVYLAALPTPGGIQIAGKTPNDGSYEQHISHMQKKINDTIAKNKELYEINPPEISEEIIGSPIPEPRQRSRLLRSQSESSDEVTELDLSHGKKDAFVLEIDDTDAMEDVHSLLTDVPPPSGFYSCNTEIMPGINNWTSEIQMFTSVRVIRLSSLNLTNQALNKNFNDLCENLLKSLYFKLRSMIPCCLCHVNFTVSLPEDELIQVTVTAVAITFDKNQALQTTKTPVEKSLQRASTDNEELLQFPLELCSDSLPSHPFPPAKAMTVEKASPVGDGNFRNRSAPPCANSTVGVVKMTPLSFIPGAKITKYLGIINMFFIRETTSLREEGGVSGFLHAFIAEVFAMVRAHVAALGGNAVVSYIMKQCVFMENPNKNQAQCLINVSGDAVVFVRESDLEVVSSQQPTTNCQSSCTEGEVTT
number of big differentiated neuronal cells per well (PC12 cells [1]; 24 hours of starvation): did not form any
cell death / survival after 24 hours of starvation (PC12 cells [1]): the highest amount of cell death
cell death within 14 hours of starvation (PC12 cells [1]): significant cell death
increase in cell body length (fold over cell body length, NGF-induced neurite outgrowth) (PC12 cells [2]): approximately 1 fold

B3: CDP138-WT: wild-type CDP138 vector transfected into PC12 cells (protein, UniProt Q86YS7 1-1000, looked up)
C2 domain-containing protein 5: MPGKLKVKIVAGRHLPVMDRASDLTDAFVEVKFGNTTFKTDVYLKSLNPQWNSEWFKFEVDDEDLQDEPLQITVLDHDTYSANDAIGKVYIDIDPLLYSEAATVISGWFPIYDTIHGIRGEINVVVKVDLFNDLNRFRQSSCGVKFFCTTSIPKCYRAVIIHGFVEELVVNEDPEYQWIDRIRTPRASNEARQRLISLMSGELQRKIGLKVLEMRGNAVVGYLQCFDLEGESGLVVRAIGTACTLDKLSSPAAFLPACNSPSKEMKEIPFNEDPNPNTHSSGPSTPLKNQTYSFSPSKSYSRQSSSSDTDLSLTPKTGMGSGSAGKEGGPFKALLRQQTQSALEQREFPFFTLTAFPPGFLVHVGGVVSARSVKLLDRIHNPDEPETRDAWWAEIRQEIKSHAKALGCHAVVGYSESTSICEEVCILSASGTAAVLNPRFLQDGTVEGCLEQRLEENLPTRCGFCHIPYDELNMPFPAHLTYCYNCRKQKVPDVLFTTIDLPTDATVIGKGCLIQARLCRLKKKAQAEANATAISNLLPFMEYEVHTQLMNKLKLKGMNALFGLRIQITVGENMLMGLASATGVYLAALPTPGGIQIAGKTPNDGSYEQHISHMQKKINDTIAKNKELYEINPPEISEEIIGSPIPEPRQRSRLLRSQSESSDEVTELDLSHGKKDAFVLEIDDTDAMEDVHSLLTDVPPPSGFYSCNTEIMPGINNWTSEIQMFTSVRVIRLSSLNLTNQALNKNFNDLCENLLKSLYFKLRSMIPCCLCHVNFTVSLPEDELIQVTVTAVAITFDKNQALQTTKTPVEKSLQRASTDNEELLQFPLELCSDSLPSHPFPPAKAMTVEKASPVGDGNFRNRSAPPCANSTVGVVKMTPLSFIPGAKITKYLGIINMFFIRETTSLREEGGVSGFLHAFIAEVFAMVRAHVAALGGNAVVSYIMKQCVFMENPNKNQAQCLINVSGDAVVFVRESDLEVVSSQQPTTNCQSSCTEGEVTT
increase in the number of big differentiated cells over empty vector (PC12 cells [1]; 24 hours of starvation): 50%
number of big differentiated neuronal cells per well (PC12 cells [1]; 24 hours of starvation): approximately 1650 per well
cell death / survival after 24 hours of starvation (PC12 cells [1]): continued to survive
cell death within 14 hours of starvation (PC12 cells [1]): no appreciable cell death
increase in cell body length (fold over cell body length, NGF-induced neurite outgrowth) (PC12 cells [2]): ~4 fold
